We go through eight molecules from patent US12077763B2, “RNA-based control of powdery mildew” (Greenlight Biosciences, Inc., priority 2021, dated 2024).

The subject of one data set is E. necator. As to the kind of experiment: Leaf disc assay, dry inoculum (settling tower), decrease in disease severity / hyphal growth (Example 2). The conditions noted are these: decrease in disease severity (hyphal growth) relative to untreated control, value ± SE; for % decrease =/− SE TP2: time point 2; for % decrease =/− SE TP1: time point 1 (untreated control hyphal growth ≥50%).

For data set [1], the system named is GS1885, GS3336, GS1875, GS1879 transcripts. The experiment in a line: Gene specific qRT-PCR of GS1885, GS3336, GS1875, GS1879 transcripts in leaf discs (Example 3). Format: in vivo, E. necator. Conditions: six-days post inoculation, FIG. 4. The procedure: FIG. 4. Gene specific qRT-PCR analysis of GS1885, GS3336, GS1875, GS1879 transcripts at 6-dpi in leaf discs. The 2-ΔΔCT method was used to analyze the relative changes in gene expression. Gene expression was normalized to the untreated control. GS145 (a non-target dsRNA sequence) was also included as control. Asterisks denote significant differences compared to untreated control (UTC). Statistical comparisons between treatments were performed with ANOVA, followed by Welch's analysis.
qRT-PCR was performed to validate the effect of exogenous dsRNA on the expression of selected targeted genes for which activity of dsRNA had been shown by leaf assay (as described in Example 2). Samples were treated with dsRNA, inoculated after 24 hours and six leaf discs per treatment were collected at six-days post inoculation (dpi) for further analysis.
On the technique in general: Quantitative PCR measures a nucleic acid by following its amplification.

B1: GS2660 (nucleic acid)
sense: GUCGUAAUGAUCUUGGCCAAUAAUUCGAGGGUCAAGCAUUCGAGAUUUAGACUCAAGGGGAUCUACCGCUGGAUAGAUACCUAAUUCUGAAAUACCACGUGAUAAUACAGUAGUUGCAUCUAAAUGAGCAAACGUUGUUGCGGGUGCUGGAUCCGUCAGAUCAUCAGCUGGCACGUAAACAGCUUGCACUGAAGUGAUUGAGCCUUUGGUAGUUGUUGUAAUUCGCUCUUGCAUAAGACCCAUAUCUACUGCAAGUGUAGGUUGAUAACCAACUGCAGAGGGAAUACGUCCGAGAAGAGCAGAGACUUCGGAGCCGGCCUGAGUGAAACGAAAAAUAUUAUCAAUGAAAAGUAAUACAUCUUGUCCUUCUUCAUCACGGAAAUACUCAGCAAUAGUUA
antisense: UAACUAUUGCUGAGUAUUUCCGUGAUGAAGAAGGACAAGAUGUAUUACUUUUCAUUGAUAAUAUUUUUCGUUUCACUCAGGCCGGCUCCGAAGUCUCUGCUCUUCUCGGACGUAUUCCCUCUGCAGUUGGUUAUCAACCUACACUUGCAGUAGAUAUGGGUCUUAUGCAAGAGCGAAUUACAACAACUACCAAAGGCUCAAUCACUUCAGUGCAAGCUGUUUACGUGCCAGCUGAUGAUCUGACGGAUCCAGCACCCGCAACAACGUUUGCUCAUUUAGAUGCAACUACUGUAUUAUCACGUGGUAUUUCAGAAUUAGGUAUCUAUCCAGCGGUAGAUCCCCUUGAGUCUAAAUCUCGAAUGCUUGACCCUCGAAUUAUUGGCCAAGAUCAUUACGAC
As for B1, the “% decrease =/− SE TP2” value in the data set with E. necator was 24 ± 8%.

B2: GS2656 (nucleic acid)
sense: GCCCGCUUCCUCAGCUAUUCUUGCCUGUUUUGCGUUGACCACAUCCAUAAUUACGCCACCCUUCAACAUGCGAGCCAGGCCGGUUUUGACCCCAAAAUUCUUUUGUCCCACAGGCUUUGAGGUGCCUUUAUUGAUUCCAUUAUUAACGCCACCAUCAGCAGAGACAGGAAUAGGGAUUUCAGUGGCCAUCUUGCAAUUAUCUCAUAAAUAGUGGUAUUAGUUAAGCGCCCGAAGGUUCUUGUCAAAUUCUUCUUGCAAAUAUUAGUAUCAAGAGUUUGCUGAAGAUAUAAAACUAAGAAACGAAUUGUAAUUAACAAAUGGAUUGUAAAAUUUCUCAAAAUGACCGCCUGGUCGAUAUGACUAUGACGUUUAGAGCCAGGAAGUGUUGCAGGAAAAA
antisense: UUUUUCCUGCAACACUUCCUGGCUCUAAACGUCAUAGUCAUAUCGACCAGGCGGUCAUUUUGAGAAAUUUUACAAUCCAUUUGUUAAUUACAAUUCGUUUCUUAGUUUUAUAUCUUCAGCAAACUCUUGAUACUAAUAUUUGCAAGAAGAAUUUGACAAGAACCUUCGGGCGCUUAACUAAUACCACUAUUUAUGAGAUAAUUGCAAGAUGGCCACUGAAAUCCCUAUUCCUGUCUCUGCUGAUGGUGGCGUUAAUAAUGGAAUCAAUAAAGGCACCUCAAAGCCUGUGGGACAAAAGAAUUUUGGGGUCAAAACCGGCCUGGCUCGCAUGUUGAAGGGUGGCGUAAUUAUGGAUGUGGUCAACGCAAAACAGGCAAGAAUAGCUGAGGAAGCGGGC
For the molecule B2, in the data set with E. necator, the “% decrease =/− SE TP1” value is 34 ± 5% and the “% decrease =/− SE TP2” value is 46 ± 6%.

B3: GS1885: dsRNA trigger SEQ ID NO 213; gene target ribosomal processing RNA binding nucleolar protein (nucleic acid)
chain: TACGGATCGATAGACGGGTGAGTGAAAGATGAAGTGCAGGATTTTTCTCTATAAGTTTCTTACGTTGTAGCGCCGAAGCTTCTCTAAGTTTAATCTCTGATGGAGATAAAACGTTATATATAGGCGTACCAACAGCAATTGTCCCCTCTTTAAGTAGATATAACTTTCGCTTATCTTTGTCTCGGTCAGTGCGGAAGTTTGTCCCAGCTTCTGTAAGTTTTACAGCTTTTTCTCGATTAACTGCTCTTGACACTTGAAGTACGCGACCTTCTATTGTGTATAAGCCATTCTTATCAGCAGTTTCATCCTCTAAAATAGAGTTTTTAGCTTTAACAGCGTTTGCACCACTTTTGAAGGTACGAGGTGCACCATGGTAACAAGAGTCCGCATCTTCTTGTCTATAGAAGCAAACAAAGCCAGTGCCTTTAGGTCGACCAGTATTATTGTCTATGACCA
As to B3, the “gene silencing in E. necator by sprayed dsRNA / gene expression levels vs untreated control” value in data set [1] is reported as “Induced Gene Silencing”. Moreover, in the data set on E. necator, the “% decrease =/− SE TP1” value turned out to be 67 ± 4% and the “% decrease =/− SE TP2” value came out at 58 ± 5%.

B4: GS2679 (nucleic acid)
sense: CCGCCAUACUGGGGGAUUAGAACCUUGUCGCCAACCUUGACAUUACAAGACACUCUGUUUCCAUCUUUGCCAACUGCACCAGGUCCUACAGCUAUAACGUGGGCUUCAUUGAGUUCCUUGACACUUUUUUCGGGAAGAAAAAUGCCACUCGCAGUCUUUGCUUCUGCCUUCACUCGUUGUACAAGAACCCGGUCAAGUAAAGGAGCAAGGGACUUGAUUGAUUUGAGUGUUGAAGCCAUGUUAGAGGAUAACGGACAGUGAAUUAUAAAGACUGUGCAAUAAAAUUGGUUUAAGAGAAAAGAUCUUUGAAGUCGCGUUACGUUAAAGUCGCUAUCUGUU
antisense: AACAGAUAGCGACUUUAACGUAACGCGACUUCAAAGAUCUUUUCUCUUAAACCAAUUUUAUUGCACAGUCUUUAUAAUUCACUGUCCGUUAUCCUCUAACAUGGCUUCAACACUCAAAUCAAUCAAGUCCCUUGCUCCUUUACUUGACCGGGUUCUUGUACAACGAGUGAAGGCAGAAGCAAAGACUGCGAGUGGCAUUUUUCUUCCCGAAAAAAGUGUCAAGGAACUCAAUGAAGCCCACGUUAUAGCUGUAGGACCUGGUGCAGUUGGCAAAGAUGGAAACAGAGUGUCUUGUAAUGUCAAGGUUGGCGACAAGGUUCUAAUCCCCCAGUAUGGCGG
For B4, in the data set with E. necator, the “% decrease =/− SE TP1” value turned out to be 25 ± 3% and the “% decrease =/− SE TP2” value is recorded as 24 ± 5%.

B5: GS2668 (nucleic acid)
sense: UUCCUAGUCAAACGUGCAUCUAGUGGAGGUGUACAAUUUUCUCGUGAUCCCCUAAACUUAACAAAUGUGCAUUCUCGCAAAUAUGCCGGAUUUGUUAACGAUAAGGCUGUCGGAAUUCUUCCCAUUGAAGGUGGUAAAGGAGGUAUUACUUUGAUCACCAAAAAAACUAAAUUUACCCAAAAACCUUCUAGCGCCAUAUACACAACAGUUUUUGGUGGUAAUAAAACUUCAAGACGGACAUAUAAGGGGGUUGUCAAUACUGUUGUCAAAUCAAGAUAUCGAUCUGAUCUUCGUGCUGAAGCUGUUGCUCGUGCGUCUGCUAUUCGGUACUCGCAAAAACCAAAGGGUGAUCUUCCUAAGAAGAAAUUGCGUGGAUCAAAAGCUAAAAAGG
antisense: CCUUUUUAGCUUUUGAUCCACGCAAUUUCUUCUUAGGAAGAUCACCCUUUGGUUUUUGCGAGUACCGAAUAGCAGACGCACGAGCAACAGCUUCAGCACGAAGAUCAGAUCGAUAUCUUGAUUUGACAACAGUAUUGACAACCCCCUUAUAUGUCCGUCUUGAAGUUUUAUUACCACCAAAAACUGUUGUGUAUAUGGCGCUAGAAGGUUUUUGGGUAAAUUUAGUUUUUUUGGUGAUCAAAGUAAUACCUCCUUUACCACCUUCAAUGGGAAGAAUUCCGACAGCCUUAUCGUUAACAAAUCCGGCAUAUUUGCGAGAAUGCACAUUUGUUAAGUUUAGGGGAUCACGAGAAAAUUGUACACCUCCACUAGAUGCACGUUUGACUAGGAA
For B5, in the data set on E. necator, the “% decrease =/− SE TP1” value is given as 46 ± 3% and the “% decrease =/− SE TP2” value worked out at 38 ± 4%.

B6: GS2674 (nucleic acid)
sense: UUGAGAAAUUAUUUUCUCUUAUAGCGAAUUUGAUUGAGUAUUUUAUGUGAUAUUCACGUUGUUGGACCCUUAUAGAUCUGGGAUUUAGGGUCUUAGAAGACUCGUCUUAAAGCUUGCCCCAACGUAUGAAGUAUUAAAUACGUUACUUUUGAUAUGAAUAUAUUUUUUAUAUACACGAAUUAAUUUAAUCGAAGAGACCAAAGCCCAUAUCUUCAUCAGACUCUUCUUCUUUUUCUUCUU
antisense: AAGAAGAAAAAGAAGAAGAGUCUGAUGAAGAUAUGGGCUUUGGUCUCUUCGAUUAAAUUAAUUCGUGUAUAUAAAAAAUAUAUUCAUAUCAAAAGUAACGUAUUUAAUACUUCAUACGUUGGGGCAAGCUUUAAGACGAGUCUUCUAAGACCCUAAAUCCCAGAUCUAUAAGGGUCCAACAACGUGAAUAUCACAUAAAAUACUCAAUCAAAUUCGCUAUAAGAGAAAAUAAUUUCUCAA
For the molecule B6, in the data set on E. necator, the “% decrease =/− SE TP1” value came to 17 ± 4% and the “% decrease =/− SE TP2” value is 5 ± 6%.

B7: ES48: dsRNA trigger SEQ ID NO 111; gene target Hypotethical effector (nucleic acid)
DNA: AGTAGCAGCGGACATCGCCGACGGCCCTACACTGTCAGGGCTACCTGGGGTTGCAGATTTCGACTTGTCTTCAGCGTCCTCCCCAAGTCTCGAGAAAAGACTTTGTTTTAGACGAGGATGCAATAAAAAATCTAAACACGCATCAGGCTTCCAATGTAAGAAGAAACATTTCAGTCTGGCGGCGGTAGAAAAAGCAAAAGCCGTAGCCTGCGCAAAGATCAAAGAAAACAAGCAGCGCAATGCCTTTCCTGCTCTTTACACCGCAACCGATTTCGAAACTCCCGGGCCTTATCTAGAATGGCCAATCAAGCGCAATGGAAGATTTTGGAATAATTTGAGAAGAGGCCGTTACCGCATCATCCTAACCGAAAACTGCAAAGTTGTCGGTGCTGTGATCCGGAAAAGCAATGGTTCATACCGCACATGCAAGAAACTGAGCGAAAAAGATGAAGATGAAGTTGATGATGATGATGAAAAAGAA
For the molecule B7, in the data set on E. necator, the “% decrease =/− SE TP1” value is on record as 15 ± 6% and the “% decrease =/− SE TP2” value was 1 ± 3%.

B8: GS2666 (nucleic acid)
sense: UUCGGCAUAUCAACGUAAAAAAAAAAUAAAUCGACACAAAACAGCUCAAUACCGUAGUUUAUCACCAUGCUUACAAUUACGUAAACGGAGGUCUGCAAAGAGCCUUAAGUCUUUGGAAAUAUCAUGCAGUAGUGGUAUUGAAAAAGGAACCACUAGCUUCGUAAACUAUACCCCAGAAGAUUCCCAGAAGAUUUUAAAUGGAGUUGCUCCGUCUGGGAGUAACAAGACCAAAGCUCGAAGGGAGAAAGAGGCCUUGGAAAAACGCCAAAAGUUAU
antisense: AUAACUUUUGGCGUUUUUCCAAGGCCUCUUUCUCCCUUCGAGCUUUGGUCUUGUUACUCCCAGACGGAGCAACUCCAUUUAAAAUCUUCUGGGAAUCUUCUGGGGUAUAGUUUACGAAGCUAGUGGUUCCUUUUUCAAUACCACUACUGCAUGAUAUUUCCAAAGACUUAAGGCUCUUUGCAGACCUCCGUUUACGUAAUUGUAAGCAUGGUGAUAAACUACGGUAUUGAGCUGUUUUGUGUCGAUUUAUUUUUUUUUUACGUUGAUAUGCCGAA
For B8, the “% decrease =/− SE TP1” value in the data set on E. necator is given as 14 ± 7%.
